PMC5657569 (Molecular cell, 2017)

B1: Estrogen receptor alpha (ERα), purified human protein (receptor, UniProt P03372 1-595, looked up)
chain: MTMTLHTKASGMALLHQIQGNELEPLNRPQLKIPLERPLGEVYLDSSKPAVYNYPEGAAYEFNAAAAANAQVYGQTGLPYGPGSEAAAFGSNGLGGFPPLNSVSPSPLMLLHPPPQLSPFLQPHGQQVPYYLENEPSGYTVREAGPPAFYRPNSDNRRQGGRERLASTNDKGSMAMESAKETRYCAVCNDYASGYHYGVWSCEGCKAFFKRSIQGHNDYMCPATNQCTIDKNRRKSCQACRLRKCYEVGMMKGGIRKDRRGGRMLKHKRQRDDGEGRGEVGSAGDMRAANLWPSPLMIKRSKKNSLALSLTADQMVSALLDAEPPILYSEYDPTRPFSEASMMGLLTNLADRELVHMINWAKRVPGFVDLTLHDQVHLLECAWLEILMIGLVWRSMEHPGKLLFAPNLLLDRNQGKCVEGMVEIFDMLLATSSRFRMMNLQGEEFVCLKSIILLNSGVYTFLSSTLKSLEEKDHIHRVLDKITDTLIHLMAKAGLTLQQQHQRLAQLLLILSHIRHMSNKGMEHLYSMKCKNVVPLYDLLLEMLDAHRLHAPTSRGGASVEETDQSHLATAGSTSSHSLQKYYITGEAEGFPATV
B2: CARM1, purified human protein (enzyme, UniProt Q86X55 1-608, looked up)
chain: MAAAAAAVGPGAGGAGSAVPGGAGPCATVSVFPGARLLTIGDANGEIQRHAEQQALRLEVRAGPDSAGIALYSHEDVCVFKCSVSRETECSRVGKQSFIITLGCNSVLIQFATPNDFCSFYNILKTCRGHTLERSVFSERTEESSAVQYFQFYGYLSQQQNMMQDYVRTGTYQRAILQNHTDFKDKIVLDVGCGSGILSFFAAQAGARKIYAVEASTMAQHAEVLVKSNNLTDRIVVIPGKVEEVSLPEQVDIIISEPMGYMLFNERMLESYLHAKKYLKPSGNMFPTIGDVHLAPFTDEQLYMEQFTKANFWYQPSFHGVDLSALRGAAVDEYFRQPVVDTFDIRILMAKSVKYTVNFLEAKEGDLHRIEIPFKFHMLHSGLVHGLAFWFDVAFIGSIMTVWLSTAPTEPLTHWYQVRCLFQSPLFAKAGDTLSGTCLLIANKRQSYDISIVAQVDQTGSKSSNLLDLKNPFFRYTGTTPSPPPGSHYTSPSENMWNTGSTYNLSSGMAVAGMPTAYDLSSVIASGSSVGHNNLIPLANTGIVNHTHSRMGSIMSTGIVQGSSGAQGSGGGSTSAHYAVNSQFTMGGPAISMASPMSIPTNTMHYGS

Legend:
[1] = molecular target: B2; assay: cryo-EM structure
[2] = molecular target: p300, purified recombinant protein from baculovirus (human, UniProt Q09472 1-2414); assay: cryo-EM structure
Sequence of p300, purified recombinant protein from baculovirus (Q09472 whole entry): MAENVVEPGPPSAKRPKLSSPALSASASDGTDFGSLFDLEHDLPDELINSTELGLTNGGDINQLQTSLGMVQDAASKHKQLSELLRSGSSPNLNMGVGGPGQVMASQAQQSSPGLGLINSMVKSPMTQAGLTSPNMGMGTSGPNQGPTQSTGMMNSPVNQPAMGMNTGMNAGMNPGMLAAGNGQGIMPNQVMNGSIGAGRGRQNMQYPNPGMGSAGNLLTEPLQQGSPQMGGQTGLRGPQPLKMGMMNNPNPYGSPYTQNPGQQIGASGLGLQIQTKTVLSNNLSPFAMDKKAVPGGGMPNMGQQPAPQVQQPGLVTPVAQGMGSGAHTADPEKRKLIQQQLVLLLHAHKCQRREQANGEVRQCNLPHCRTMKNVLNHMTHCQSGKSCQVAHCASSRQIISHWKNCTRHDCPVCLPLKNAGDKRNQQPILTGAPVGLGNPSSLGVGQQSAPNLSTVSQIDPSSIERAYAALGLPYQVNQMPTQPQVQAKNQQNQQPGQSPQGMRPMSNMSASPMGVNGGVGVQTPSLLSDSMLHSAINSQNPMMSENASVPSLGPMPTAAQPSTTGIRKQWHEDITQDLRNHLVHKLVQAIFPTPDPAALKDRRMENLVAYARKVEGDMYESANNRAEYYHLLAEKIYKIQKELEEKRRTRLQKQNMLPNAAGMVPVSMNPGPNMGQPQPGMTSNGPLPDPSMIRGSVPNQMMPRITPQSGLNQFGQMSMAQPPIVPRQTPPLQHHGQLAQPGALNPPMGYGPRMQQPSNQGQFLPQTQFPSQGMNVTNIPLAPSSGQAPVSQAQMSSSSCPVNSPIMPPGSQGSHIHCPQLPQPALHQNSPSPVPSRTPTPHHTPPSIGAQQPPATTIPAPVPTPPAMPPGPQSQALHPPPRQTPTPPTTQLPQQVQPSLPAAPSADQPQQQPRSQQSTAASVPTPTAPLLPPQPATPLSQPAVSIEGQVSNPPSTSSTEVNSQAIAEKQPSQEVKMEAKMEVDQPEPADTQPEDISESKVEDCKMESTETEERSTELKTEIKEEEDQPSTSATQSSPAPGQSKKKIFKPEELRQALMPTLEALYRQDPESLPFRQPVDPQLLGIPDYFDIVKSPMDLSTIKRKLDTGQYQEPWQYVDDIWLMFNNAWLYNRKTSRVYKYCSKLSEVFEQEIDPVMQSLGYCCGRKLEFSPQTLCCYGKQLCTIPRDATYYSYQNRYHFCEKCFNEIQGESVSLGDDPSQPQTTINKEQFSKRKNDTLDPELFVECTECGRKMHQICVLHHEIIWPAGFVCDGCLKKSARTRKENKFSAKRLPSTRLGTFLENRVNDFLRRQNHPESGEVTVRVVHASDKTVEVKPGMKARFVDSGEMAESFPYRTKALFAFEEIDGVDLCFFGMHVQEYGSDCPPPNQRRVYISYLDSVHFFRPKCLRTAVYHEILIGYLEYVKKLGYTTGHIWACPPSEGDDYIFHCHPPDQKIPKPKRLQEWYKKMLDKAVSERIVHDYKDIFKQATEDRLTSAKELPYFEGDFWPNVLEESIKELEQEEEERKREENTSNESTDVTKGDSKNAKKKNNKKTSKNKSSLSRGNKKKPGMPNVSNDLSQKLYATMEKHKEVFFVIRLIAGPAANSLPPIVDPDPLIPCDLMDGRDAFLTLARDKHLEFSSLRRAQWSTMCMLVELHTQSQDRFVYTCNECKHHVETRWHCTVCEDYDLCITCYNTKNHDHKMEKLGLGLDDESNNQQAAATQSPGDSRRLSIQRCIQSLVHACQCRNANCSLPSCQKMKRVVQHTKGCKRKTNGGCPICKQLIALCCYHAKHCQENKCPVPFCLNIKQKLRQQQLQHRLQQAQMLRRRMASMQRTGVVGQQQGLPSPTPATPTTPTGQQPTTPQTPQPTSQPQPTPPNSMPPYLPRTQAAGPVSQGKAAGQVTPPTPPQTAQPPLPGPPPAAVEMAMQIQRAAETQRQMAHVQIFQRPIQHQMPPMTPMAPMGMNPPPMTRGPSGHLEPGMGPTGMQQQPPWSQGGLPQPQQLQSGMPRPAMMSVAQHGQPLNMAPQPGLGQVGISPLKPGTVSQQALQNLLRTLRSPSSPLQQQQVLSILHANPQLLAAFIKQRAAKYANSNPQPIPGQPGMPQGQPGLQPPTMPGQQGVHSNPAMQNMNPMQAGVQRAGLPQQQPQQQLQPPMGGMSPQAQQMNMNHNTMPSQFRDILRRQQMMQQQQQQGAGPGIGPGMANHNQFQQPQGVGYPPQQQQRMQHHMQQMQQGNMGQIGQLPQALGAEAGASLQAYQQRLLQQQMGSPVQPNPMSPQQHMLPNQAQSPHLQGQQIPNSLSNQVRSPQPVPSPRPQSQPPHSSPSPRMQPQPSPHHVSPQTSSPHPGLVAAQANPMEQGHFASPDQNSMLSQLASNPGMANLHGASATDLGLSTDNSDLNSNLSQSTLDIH

| binding result [1] | binding result [2] | Binder |
| --- | --- | --- |
| binds | binds | B1 |
| – | binds | B2 |
